Key:
[1] = target: T1, soluble Fas ligand molecule (human Fas ligand released into the supernatant of COS cells transfected with … (human, UniProt P48023 130-281, limits assumed)); assay: cell-based or functional assay
T1 sequence (looked up): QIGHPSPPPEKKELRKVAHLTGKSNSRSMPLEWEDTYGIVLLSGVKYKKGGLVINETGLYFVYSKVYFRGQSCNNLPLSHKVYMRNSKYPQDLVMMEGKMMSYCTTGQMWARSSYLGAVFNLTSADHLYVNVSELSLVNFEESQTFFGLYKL

[2] = target: T2, Fas ligand peptide KMMSYCTTGQMWARS (228-242 positions) (human); assay: PepSet pin ELISA, hybridoma culture supernatant, HRP anti-mouse IgG
T2 construct: Synthetic 15-mer immobilized on a PepSet pin
T2 peptide: KMMSYCTTGQMWARS
Procedure: (§1) (9) After removal of the pins of PepSet from the plate, 50 μl of 2N H_2SO_4 was added to the wells to quench the reaction.
(§2) Thus, it has been shown that the anti-Fas ligand antibody produced by NOK1 and NOK4 hybridomas recognize the region, […]-[…] (SEQ ID NO:139), of Fas ligand, whereas the anti-Fas ligand antibody of NOK2 hybridoma recognizes the region, […]-[…] (SEQ ID NO:140), of Fas ligand.

[3] = target: T3, Fas ligand peptide YPQDLVMMEGKMMSY (218-232 positions) (human); assay: as above
T3 construct: Synthetic 15-mer immobilized on a PepSet pin
T3 peptide: YPQDLVMMEGKMMSY
Procedure: as §1, §2

[4] = target: T4, Fas ligand peptide VMMEGKMMSYCTTGQ (223-237 positions) (human); assay: as above
T4 construct: Synthetic 15-mer immobilized on a PepSet pin
T4 peptide: VMMEGKMMSYCTTGQ
Procedure: as §1, §2

binding result [2] | binding result [3] | binding result [4] | Binder | apoptosis inhibition: viable rate of Fas-WR19L target cells with soluble Fas ligand, Alamar Blue fluorescence, 17 h [1] [%]
 |  |  | RNOK201 (humanized NOK2 antibody, RNOK2VHver11 with RNOK2VLver1) (antibody, V domains shown) VH: QVQLVQSGAEVKKPGASVKVSCKASGYTFTNYWIGWVKQAPGQGLEWIGYLYPGGLYTNYNEKFKGKATMTADTSTNTAYMELSSLRSEDTAVYYCARYRDYDYAMDYWGQGTLVTVSS VL: DVVMTQTPSSLSASVGDRASISCKSTKSLLNSDGFTYLGWCQQKPGQSPQLLIYLVSNRFSGVPDRFSGSGSGTDFTLKISSLQPEDIATYYCFQSNYLPLTFGQGTKVEIKR | ≥ 90
 |  |  | RNOK202 (humanized NOK2 antibody, RNOK2VHver11 with RNOK2VLver21) (antibody, V domains shown) VH: QVQLVQSGAEVKKPGASVKVSCKASGYTFTNYWIGWVKQAPGQGLEWIGYLYPGGLYTNYNEKFKGKATMTADTSTNTAYMELSSLRSEDTAVYYCARYRDYDYAMDYWGQGTLVTVSS VL: DVVMTQTPLSLPVTPGEPASISCKSTKSLLNSDGFTYLGWCLQKPGQSPQLLIYLVSNRFSGVPDRFSGSGSGTDFTLKISRVEAEDVGVYYCFQSNYLPLTFGQGTKLEIKR | ≥ 90
 |  |  | RNOK203 (humanized NOK2 antibody, RNOK2VHver11 with RNOK2VLver22) (antibody, V domains shown) VH: QVQLVQSGAEVKKPGASVKVSCKASGYTFTNYWIGWVKQAPGQGLEWIGYLYPGGLYTNYNEKFKGKATMTADTSTNTAYMELSSLRSEDTAVYYCARYRDYDYAMDYWGQGTLVTVSS VL: DVVMTQTPLSLPVTLGQPASISCKSTKSLLNSDGFTYLGWCLQKPGQSPQLLIYLVSNRFSGVPDRFSGSGSGTDFTLKISRVEAEDVGVYYCFQSNYLPLTFGQGTKLEIKR | ≥ 90
binds | binds | binds | NOK2 antibody (mouse anti-Fas ligand monoclonal antibody of hybridoma NOK2, FERM BP-5045) (antibody, V domains shown, Mouse IgG, purified on protein G; kappa light chain; Those are derived from the cloned PCR product and may hold leader or primer residues; also called mouse NOK2 immunoglobulin; NOK2 immunoglobulin) VH: QVHLQQSGAELVRPGTSVKMSCKAAGYTFTNYWIGWVKQRPGHGLEWIGYLYPGGLYTNYNEKFKGKATLTADTSSSTAYMQLSSLTSEDSAIYYCARYRDYDYAMDYWGQGTSVTVSS VL: DVVLTQTPLSLPVNIGDQASISCKSTKSLLNSDGFTYLGWCLQKPGQSPQLLIYLVSNRFSGVPDRFSGSGSGTDFTLKISRVEAEDLGVYYCFQSNYLPLTFGSGTKLEIKR | 
